Experimental findings from US20260125477A1 (BEIJING MABWORKS BIOTECH, published 2026) are described below.

Test [1] deals with T1, human PD-L1/B7-H1 protein, with His tag (human, UniProt Q9NZQ7 19-238).
T1 construct: Bought protein
Nature of the test: SPR (Biacore T200), antibody captured on Protein A chip. The protocol:
(§1) The anti-human B7-H3 antibodies were tested for their binding capability to B7 family proteins by SPR using Biacore T200 biosensor (Biacore, US) provided with a pre-fixed Protein A sensor chip.
(§2) The dissociation was monitored for 600 sec. The data was analyzed using Biacore 8k evaluation software version 3.0, to obtain the binding responses, and the protein concentration-binding response curves were plotted, to determine the cross-reaction of the anti-human B7-H3 antibodies to the B7 family proteins.

Test [2] has as its target T2, human B7-H5/Gi24/VISTA protein, with His tag (MALS verified) (human, UniProt Q9H7M9 33-194).
T2 construct: Bought protein
T2 sequence (looked up): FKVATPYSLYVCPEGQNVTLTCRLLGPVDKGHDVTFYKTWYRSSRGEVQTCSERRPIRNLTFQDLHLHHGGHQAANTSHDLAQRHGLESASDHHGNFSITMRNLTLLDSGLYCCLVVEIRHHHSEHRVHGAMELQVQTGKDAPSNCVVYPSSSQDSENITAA
The description is as above. The protocol: as §1, §2

Test [3] deals with T3, human B7-H4 protein, with His tag (MALS verified) (human, UniProt Q7Z7D3 29-258, limits assumed).
T3 construct: Bought protein
T3 sequence (looked up): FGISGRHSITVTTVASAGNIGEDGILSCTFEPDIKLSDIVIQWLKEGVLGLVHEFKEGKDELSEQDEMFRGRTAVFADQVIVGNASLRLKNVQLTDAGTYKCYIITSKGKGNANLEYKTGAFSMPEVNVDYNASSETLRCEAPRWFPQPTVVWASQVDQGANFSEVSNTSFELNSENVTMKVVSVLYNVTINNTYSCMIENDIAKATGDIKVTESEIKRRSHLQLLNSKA
Described as above. How it is done:
as §1, §2

The target in test [4] is T1, human PD-L1/B7-H1 protein, with His tag. Nature of the test: SPR (Biacore T200), 6B5 captured on Protein A chip; response against concentration. How it is done:
as §1, §2
In general terms: SPR reads the build-up and loss of mass on a sensor chip optically.

Test [5] concerns the target T4, human B7-2/CD86 protein, with His tag (human, UniProt P42081 26-247, limits assumed).
T4 construct: Bought protein
T4 sequence (looked up): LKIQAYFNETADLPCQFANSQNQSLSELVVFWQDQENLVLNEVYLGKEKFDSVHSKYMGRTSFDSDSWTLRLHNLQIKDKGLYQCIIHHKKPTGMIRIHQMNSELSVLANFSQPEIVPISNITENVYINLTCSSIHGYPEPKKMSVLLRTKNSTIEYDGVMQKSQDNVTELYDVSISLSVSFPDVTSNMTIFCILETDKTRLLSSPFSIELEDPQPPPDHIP
The description is as above. The protocol: as §1, §2

Test [6] deals with T2, human B7-H5/Gi24/VISTA protein, with …. The description is as above. How it is done: as §1, §2
Test [7] has as its target T5, human B7-H7/HHLA2 protein, with His tag (MALS verified) (human, UniProt Q9UM44 23-344, limits assumed).
T5 construct: Bought protein
T5 sequence (looked up): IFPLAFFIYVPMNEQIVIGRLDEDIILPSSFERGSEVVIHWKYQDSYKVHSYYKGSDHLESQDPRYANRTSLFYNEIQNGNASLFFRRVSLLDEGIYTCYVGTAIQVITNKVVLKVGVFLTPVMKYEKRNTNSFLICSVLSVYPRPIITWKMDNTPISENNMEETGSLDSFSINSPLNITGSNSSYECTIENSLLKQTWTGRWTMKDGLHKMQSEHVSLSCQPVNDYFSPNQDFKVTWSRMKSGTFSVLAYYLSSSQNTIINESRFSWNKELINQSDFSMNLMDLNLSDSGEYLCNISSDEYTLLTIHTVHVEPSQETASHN
Described as above. How it is done: as §1, §2

Test [8] addresses T3, human B7-H4 protein, with His tag (MALS …). The test is described as above. How it is done: as §1, §2
Test [9] concerns the target T6, human B7-H2/ICOSLG protein, with His tag (human, UniProt O75144 19-258, limits assumed).
T6 construct: Bought protein
T6 sequence (looked up): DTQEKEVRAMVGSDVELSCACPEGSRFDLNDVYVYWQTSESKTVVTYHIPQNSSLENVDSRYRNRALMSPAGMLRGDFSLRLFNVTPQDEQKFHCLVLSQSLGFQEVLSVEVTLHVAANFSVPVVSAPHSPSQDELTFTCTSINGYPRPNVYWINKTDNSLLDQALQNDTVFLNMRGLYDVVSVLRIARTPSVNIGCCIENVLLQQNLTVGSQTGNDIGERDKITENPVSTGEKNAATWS
The test is described as above. How it is done:
as §1, §2

Test [10] has as its target T7, mouse B7-H3/CD276 protein, with His tag (mouse, UniProt Q8VE98 29-244, limits assumed).
T7 construct: Bought protein
T7 sequence (looked up): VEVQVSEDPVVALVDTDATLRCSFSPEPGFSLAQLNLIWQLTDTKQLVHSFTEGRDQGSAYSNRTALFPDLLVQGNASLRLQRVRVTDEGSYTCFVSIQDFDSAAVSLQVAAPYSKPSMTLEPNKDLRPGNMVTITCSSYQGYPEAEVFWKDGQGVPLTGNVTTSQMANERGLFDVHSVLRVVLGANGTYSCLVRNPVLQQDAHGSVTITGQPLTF
Nature of the test: SPR (Biacore T200), antibody captured on Protein A chip, His-tagged antigen injected. The protocol: The fully human anti-human B7-H3 antibodies were tested for their binding affinity to human B7-H3 (4Ig), human B7-H3 (2Ig), monkey B7-H3 (monkey B7-H3/CD276 protein, with His tag, Cat #: B73-C52Ha, ACROBiosystems) and mouse B7-H3 protein (mouse B7-H3/CD276 protein, with His tag, Cat #: B73-M52H4, ACROBiosystems) by surface plasmon resonance (SPR) using Biacore T200 biosensor (Biacore, US) provided with a pre-fixed Protein A sensor chip. Briefly, the anti-human B7-H3 antibodies (1 μg/mL) were injected to the Biacore T200 biosensor at 10 μL/min for 20 sec, to achieve the desired protein density (100±30 RU).
The data as generated was analyzed using Biacore Insight V2.0.1 5.12933 with the one-to-one Langmuir binding model. The association rate (kₒₙ) and dissociation rate (koff) were obtained at the same time. The affinity was calculated as the quotient of the two kinetic rate constants (KD=koff/kₒₙ).

T1 sequence (Q9NZQ7 19-238 limits assumed): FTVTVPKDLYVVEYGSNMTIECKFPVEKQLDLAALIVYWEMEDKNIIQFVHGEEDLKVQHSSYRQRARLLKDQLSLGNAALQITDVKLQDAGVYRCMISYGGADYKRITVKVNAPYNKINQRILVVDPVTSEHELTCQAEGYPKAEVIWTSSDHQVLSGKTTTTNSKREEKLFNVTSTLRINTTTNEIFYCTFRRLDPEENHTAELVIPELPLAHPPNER

B1: 10D7 (antibody, human IgG1, kappa, V domains shown)
VH: QVQLVQSGPGLVKPSETLSLTCTVSGGSISRSSYYWGWIRQPPGKGLEWIGNIFYAGSTYYNPSLKSRVTISVDTSKNQFSLKLSSVTAADTAVYYCARRITGTTGWFDPWGQGTLVTVSS
VL: DIQLTQSPSSLSASVGDRVTITCRASQGIRNDLGWYQQKPGKAPKLLIYAASTLQSGVPSRFSGSGSGTDFTLTISSLQPEDFATYYCLQDYNYPRTFGQGTKVEIKR
notes: also called 10D7-WT; Ab10D7
As to B1, the binding result in test [1], in test [2] and in test [3] was “no binding (tested: 200 nM)” each time.

B2: 6B5 (antibody, human IgG1, kappa, V domains shown)
VH: QVQLVESGPGLVKPSQTLSLTCTVSDGSISSGGYYWSWIRQHPGKGLEWIGYIYYSGGTYYSPSLKSRVTISVDTSKNQFSLKLTSVTAADTAVYYCARRAGYSSSFDSWGQGILVTVSS
VL: EIVLTQSPLSLPVTPGEPASISCRSSQSLLYSNGYTYLDWYLQKPGQSPQFLIYLGFNRASGVPDRFSGSGSGTDFTLKISRVEAEDVGVYYCMQGLQTPYTFGQGTKLEIKR
notes: also called 6B5-WT; Ab6B5
As a reminder, the Kd is the constant that tells how readily two partners part at equilibrium. Low values mean higher affinity, high ones lower affinity. The term koff denotes a measure of how fast the partners let go of each other. Low values mean a long-lived complex, high ones a short-lived complex. For orientation: kon means the rate constant with which the complex forms. As for B2, the binding result in test [4], in test [5], in test [6], in test [7], in test [8] and in [9] was “no binding (tested: 200 nM)” each time. Moreover, the Kd in test [10] was determined as 274 nM. The same molecule displayed a koff in [10] of 0.0159 s⁻¹. In test [10], the kon amounted to 58300 M⁻¹ s⁻¹.

B3: 10F5 (antibody, human IgG1, kappa, V domains shown)
VH: QVQLVQSGAEVKKPGSSVKVSCKASGGTFSSQAISWVRQAPGQGLEWMGRIIPMLGIGDYAQSFQGRVTITADKSTSTAYLEVSSLGSEDTAVYYCAREGIAALGTNYYYGMDVWGQGTAVTVSS
VL: EIVMTQSPSSVSASVGDRVTITCRASQGISRWLAWYQQKPGKAPKLLIYVASSLQSGVPSRFSGSGSGTDFTLTISSLQPEDFATYYCQQANSFPFTFGPGTKVDIRR
notes: also called Ab10F5
As to B3, the binding result in test [1], in [2] and in test [3] was “no binding (tested: 200 nM)” in each case.
